Data from article PMC7835958 (2021).

Molecular target: T1, LEDGF/p75 IBD (Homo sapiens, UniProt O75475)
T1 chain: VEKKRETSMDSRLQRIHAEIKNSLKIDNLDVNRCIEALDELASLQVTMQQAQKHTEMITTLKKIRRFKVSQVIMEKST
Test: NMR

Kd: 64 µM
Binder: GTNLRRFRAVFGESGGGGGSGEDEQFLGFGSDEEVRVR [MLL 123-160]
